Assay: yeast display, Sf9 membrane polyspecificity reagent, FACS + sequencing; frameworks hold sequencing errors
Summary of the method: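 Sorting gates, low and high (top ~1%), were placed on anti-HA fluorescence to track expression and on streptavidin fluorescence to track reagent binding. A clone's polyreactivity label is taken from the gate it came out of. The reagent was 10% biotinylated, detergent-solubilized Sf9 membrane, applied for 1 hour at 4 °C to galactose-induced yeast display cells.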

Row | Sequence | polyreactivity (PSR sort gate)
1 | QVQLVESGGGLVQAGGSLRLSCAASGITFLRYAMGWYRKSPGKERELVARISSGGRTDYADSVKGRFTISRDNAKNTVYLQMNSLKPEDSAVYYCNATVYEWHTEYDYWGQGTQVTVSS | high polyreactivity
2 | QVQLVESGGGLVQAGGSLRLSCAASGRNIVGYAMGWYIQAPGKERELVAAITKSGGRTYYADSVKGRFTISRDNAKNTVYLQMNSLKPEDTAVYYCAVLNSKWNEYDYWGQGTQVTVSS | high polyreactivity
3 | QVQLVDSGGGLLQAGGSLRLSCAASGRIFVYNAMGWYRQAPGKERELVAAITRGGSTYYADSVKGRFTISRDNAKNTVDLQMNSLKPEDPAGYYCAADYAWVSIYDNVPSAPGYDDWGQGTQGTVSS | low polyreactivity
4 | QVQLVESGGGLVQAGGSLRLSCAASGITFLKNAMGWYRQAPGKESELVAAISSSGGSTYYADSVKGRFTISRDNAKNTVYLQMNSLKPEDTAVYYCAARIYWYTPGRRGYTYDYWGQGTQVTVSS | high polyreactivity
5 | QVQLVESGGGLVQAGGSLRLSCAASGFIFGFNAMGWYRQAPGKERELVAVFNRSGSRTYYADSVKGRFTISRDNAKNTVYLQMNSLKPEDTAVYYCNAYPRYQYWGQGTLVTVSS | high polyreactivity
6 | QVQLVESGGGLVQAGGSLRLSCAASGIIFVHYALGWYRQAPGKEWQLVAAITSGGSTKYADSVKGRFTISRDNAKNTVYLQMNSLKPEDTAVYYCAAGHYVYWYRYQLGGYNYWGIGTQVTVSS | high polyreactivity
7 | KVQLVESGGGLVQAGGSLRLSCAASGSIFGDNAMGWYRQAPGKERELVAAINYNGGRTYYADSVKGRFTISRDNAKNTVYLQMNSLKPEDTAVYYCAKDNYQAPVQQYPFDYWGQGSQVTVSS | low polyreactivity
8 | QVQLVESGGGLVQAGGSLRLSCAASGSIFPGNAMGWYRQAPGKERELVAAIDFSGGSTYYADSVKGRFTISRDNAKNTVYLQMNSLKPEDTAVYYCAASVYPYYGYGYWGQGTQVTVSS | low polyreactivity
9 | QVQLVESGGGLVQEGGSLRLSCAASGRTFSYNAMGWYSQAPGKERELFAAITGRGGSTYYADSVKGRFTISRDNAKKTVYLQMNRLKPEVTAVYYCNAVDAGYHRDRDYWGLGTQVTVSS | low polyreactivity
10 | QVQLVESGGGLVQAGGSLRLSCAASGLIFYGNAMGWYRQAPGKERELVAAISRRGGRTYYADSVKGRFTISRDKAKNTVYLQMKSLKPEDTAVYYCAADVIYSGDYWGQGTQVTVSS | high polyreactivity
11 | QVQLVESGGVLVQAGGSLRLSCASSGSIFYIYGMGWSRQAPWKERELVARISSGDRTNYADSVKGRFTISRDNAKNRVYLQMNSRNPDDTAVYYCAAKKRKIAGVGGDYWGQGTQVTVSS | high polyreactivity
12 | QVQLVESGGGLVQEGGSLRLSCAASGSTFRRNAMGWYRQAPGKERELVAAISTSGGTTYYADSVKGRFTISRDYAKNTVYLQMNSLKPEDTAVYYCAAGGKKRDDYWGQGTQVTVSS | high polyreactivity
13 | QVQLVESGGGLVQAGGSLRLSCAASGRIISNYAMGWYRQAPGNERELVAAITVIGGRTYYADSVKGRFTISRDNAKNTVYLQMNSLKPEDTAVYYCNAEEYWYDGFYWLSYDYWGQGTQVTVSS | high polyreactivity
14 | QVQLGESGGGLVQSGGSLRLSCAASGRIFDLNAMGWYRPAPGKERELVAAISYSDGSTYYADSVKGRFTISRDNEKNTVYLQMNSLKTEDTAVYYCAADFFDRTYITWYEYWGQGTQVTVSS | high polyreactivity
15 | QVQLVESGGGLVQAGGSLRLSCAASGFTIESNAMGWYRQAPGKERELVAAISASGDSTYYADSVKGRFTISRDNAKNTVYLQMNSLKPEDTAVYYCAADRYYGGWRFDHWGQGTQVTVSS | low polyreactivity
16 | QVQLEESAGGLVQAGGSLRLSCAASGLTFNYYAMGWYRQAPGKERELVAAITGRGGSTYYADSVKGRFTISRDNAKNTVYLQMNSLKPEDTAVYYCAADGGTRGYDYWGQGTQVTVSS | low polyreactivity
17 | QVQLVESGGGLVQAGGSLRLSCAASGNTFGNYGMGWYRQAPGKEREFVAAITSRGTSTYYADSVKGRFTISRDNAKYTVYLQMNSLKPEDTAVYYCNARPRYKYPRYDYWGQGTQVTVSS | high polyreactivity

Source: the nanobody polyreactivity screen of Harvey et al. (2022)
